Measurements reported in article PMC3025021, “Structural Basis of Enzymatic Activity for the Ferulic Acid Decarboxylase (FADase) from Enterobacter sp. Px6-4” (PLoS ONE, 2011).

B1: FADase (ferulic acid decarboxylase) (Enterobacter sp. Px6-4) (protein)
chain: MNTFDKHDLSGFVGKHLVYTYDNGWEYEIYVKNENTLDYRIHSGLVGNRWVKDQQAYIVRVGESIYKISWTEPTGTDVSLIVNLGDSLFHGTIFFPRWVMNNPEKTVCFQNDHIPLMNSYRDAGPAYPTEVIDEFATITFVRDCGANNESVIACAASELPKNFPDNLK
notes: full-length Met1-Lys168, pET-28a(+) EcoRI/HindIII, Ni-NTA purified, E. coli BL21(DE3); 23 kDa subunit, homodimer (44 kDa)

How the values were obtained:
[1] = target: T1, FADase (ferulic acid decarboxylase) (Enterobacter sp. Px6-4, UniProt C6F3U5); assay: X-ray crystal structure, soaking, […] Å; assay type: binding; settings: crystals soaked overnight with 7 mM sodium ferulate; active site of monomer A
T1 construct: full-length Met1-Lys168, pET-28a(+) EcoRI/HindIII, Ni-NTA purified, E. coli BL21(DE3); 23 kDa subunit, homodimer (44 kDa)
T1 sequence (C6F3U5 1-168): B1 chain

[2] = system: T2, COc1cc(/C=C/C(=O)O)ccc1O; assay: HPLC decarboxylation assay; assay type: biochemical, Enterobacter sp. Px6-4; settings: 50 mM sodium phosphate pH 4.0, 28 °C (standard activity assay)
T2 construct: full-length Met1-Lys168, pET-28a(+) EcoRI/HindIII, Ni-NTA purified, E. coli BL21(DE3); 23 kDa subunit, homodimer (44 kDa)
Text: (§1) HPLC decarboxylation assay on FADase (ferulic acid decarboxylase)

[3] = target: Ferulic acid decarboxylase (FADase) from Enterobacter sp. Px6-4 (Enterobacter sp. Px6-4); assay: SEC; gel-filtration / size exclusion chromatography of recombinant FADase; data not shown
[4] = target: Ferulic acid decarboxylase (FADase) from Enterobacter sp. Px6-4 (Enterobacter sp. Px6-4); assay: cross-linking; cross-linking of FADase with ethylene glycolbis (EGS), read on a gel
[5] = substrate: COc1cc(/C=C/C(=O)O)ccc1O; assay: HPLC decarboxylation assay; assay type: biochemical, Enterobacter sp. Px6-4; settings: 50 mM sodium phosphate pH 4.0, 28 °C (standard activity assay)
Text: as §1

Row | Molecule | Km [2] [µM] | Vmax [2] [µM/min] | kcat [2] [s⁻¹] | kcat/Km [2] [M⁻¹ s⁻¹] | other results
1 | COc1cc(/C=C/C(=O)O)ccc1O [sodium ferulate] |  |  |  |  | X-ray crystal structure, soaking, 2.1 Å [1]: The crystal structure of FADase in complex with the substrate analog sodium ferulate
2 | FADase (ferulic acid decarboxylase) (Enterobacter sp. Px6-4; E134A) | 3520 | 285 | 0.995 | 280 | 
3 | FADase (ferulic acid decarboxylase) (Enterobacter sp. Px6-4; W25A) | 730 | 39.6 | 0.02 | 20 | 
4 | Ferulic acid decarboxylase (FADase) from Enterobacter sp. Px6-4 (enzyme) |  |  |  |  | stoichiometry N [3]: 2; stoichiometry N [4]: 2
5 | B1 |  |  |  |  | Km [5]: 2360 µM; Vmax [5]: 606 µM/min; kcat [5]: 2.15 s⁻¹; kcat/Km [5]: 910 M⁻¹ s⁻¹
